Laboratory results as given in US20020012945A1, “METHOD AND REAGENT FOR THE DETECTION OF APOPTOTIC CELLS AND OF A PROTEASE ACTIVATED DURING APOPTOSIS” (priority 1998, published 2002).
* marks the point of attachment. Dnp = O=[N+]([O-])c1ccc(*)c([N+](=O)[O-])c1; Mca = COc1ccc2c(CC(=O)*)cc(=O)oc2c1

Assays:
caspase 3 [1] = molecular target: T1, caspase 3 (Homo sapiens, UniProt P42574); experiment: Selection of the optimal fluorescent substrate; format: biochemical
T1 construct: endogenous in cells; host or cells: cell lysates with and without camptothecin induction (cell model U937/CAM)
T1 sequence (P42574 29-175 limits assumed): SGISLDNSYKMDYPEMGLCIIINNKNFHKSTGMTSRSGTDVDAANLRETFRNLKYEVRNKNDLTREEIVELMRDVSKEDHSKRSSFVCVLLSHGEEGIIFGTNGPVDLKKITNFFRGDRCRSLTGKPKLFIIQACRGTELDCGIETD
T1 sequence (P42574 176-277 limits assumed): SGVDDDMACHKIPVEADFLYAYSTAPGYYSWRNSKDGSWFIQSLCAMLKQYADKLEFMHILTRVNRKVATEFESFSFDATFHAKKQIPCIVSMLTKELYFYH
Procedure: Three fluorescent substrates were tested. They are acetyl-Asp-Glu-Val-Asp-7-amido-4-trifluoromethyl-coumarin (AFC), acetyl-Asp-Glu-Val-Asp-7-amido-4-methyl-coumarin (AMC) and (7-methoxycoumarin-4-yl)acetyl-Asp-Glu-Val-Asp-Ala-Pro-Lys(2,4-dinitrophenyl)OH (Mca). The three substrates were compared with one another using the assessment criteria i) background ii) signal level and iii) signal ratio from ± induction.

caspase 3 [2] = experiment: Caspase 3 activation in camptothecin-treated U937 cells, antibody capture and Ac-DEVD-AFC cleavage; format: cell-based, human; settings: U937 5×10^5 cells/ml, 4 μg/ml camptothecin, after 2 h
Procedure: In order to induce apoptosis in a cellular system, human cells (U937; human histiolytic lymphoma […]) were treated with camptothecin (Topoisomerase I inhibitor, chemotherapeutic agent). […] In order to detect the protease activated by apoptosis (caspase 3), ca. 10^6 cells were withdrawn from the treated cell culture and lysed in lysis buffer (50 mM NaPO4, 10 mM NaCl, 1 mM […], 0.25% (w/v) Nonidet P40, 0.3 mM EDTA; pH 7.8) on ice. The lysate is then contacted with an antibody directed against caspase 3 which is coupled to a solid phase and binds caspase 3 from the lysate for the specific caspase 3 analysis. After removing the supernatant (contains all unspecific components and enzymes), a substrate (50 μM Ac-DEVD-AFC) is added and its caspase 3 mediated substrate conversion is measured by the formation of the fluorescent coumarin cleavage product. After subtraction of the blank value (self fluorescence of the substrate without lysate addition), the kinetic course of the caspase 3 activity can be shown graphically (FIG. 1).

background (self-fluorescence of the substrate without lysate addition) (caspase 3 [1])	signal level (caspase 3 [1])	signal ratio from ± induction (caspase 3 [1])	Molecule	protease activity (caspase 3) (caspase 3 [2])
relatively high	highest signals	–	acetyl-Asp-Glu-Val-Asp-7-amido-4-methyl-coumarin [AMC]	–
–	very good signal yield	optimal ratio	acetyl-Asp-Glu-Val-Asp-7-amido-4-trifluoromethyl-coumarin [AFC]	–
–	–	–	CC[C@@]1(O)C(=O)OCc2c1cc1n(c2=O)Cc2cc3ccccc3nc2-1 [camptothecin]	increase of protease activity
–	low signal levels	somewhat better ratio	(7-methoxycoumarin-4-yl)acetyl-Asp-Glu-Val-Asp-Ala-Pro-Lys(2,4-dinitrophenyl)OH (Mca-DEVDAPK(Dnp)-OH; SMILES COc1ccc2c(CC(=O)N[C@@H](CC(=O)O)C(=O)N[C@@H](CCC(=O)O)C(=O)N[C@H](C(=O)N[C@@H](CC(=O)O)C(=O)N[C@@H](C)C(=O)N3CCC[C@H]3C(=O)N[C@@H](CCCCNc3ccc([N+](=O)[O-])cc3[N+](=O)[O-])C(=O)O)C(C)C)cc(=O)oc2c1)	–
